From patent publication US20220251219A1 (published 2022)

B1: anti-Sortilin antibody S-15-6-12 (antibody, V domains shown)
VH: QVQLVQSGAEVKKPGASVKVSCKASGYTFTSRYMSWVRQAPGQGLEWMGIINPVGGSTSYAQKFQGRVTMTRDTSTSTVYMELSSLRSEDTAVYYCARDPSGIALAGPGSRYYRGMDVWGQGTTVTVSS
VL: EIVMTQSPATLSVSPGERATLSCRASQSVSSNLAWYQQKPGQAPRLLIYGASTRATGIPARFSGSGSGTEFTLTISSLQSEDFAVYYCQQARLGPWTFGGGTKVEIK
B2: anti-Sortilin antibody S-15-10-13 (antibody, V domains shown)
VH: QVQLVQSGAEVKKPGASVKVSCKASGYTFTKYYMSWVRQAPGQGLEWMGIINPIGGSTSYARKFQGRVTMTRDTSTSTVYMELSSLRSEDTAVYYCARDPSGIAAAYPASRYNYGMDVWGQGTTVTVSS
VL: EIVMTQSPATLSVSPGERATLSCRASQSVSSNLAWYQQKPGQAPRLLIYGASTRATGIPARFSGSGSGTEFTLTISSLQSEDFAVYYCQQARLGPWTFGGGTKVEIK

How the values were obtained:
[1] = biological target: T1, human Sortilin expressed on HEK293T cells (human, UniProt Q99523 78-830); assay: flow cytometry, antibody titration on HEK293T cells stably expressing human Sortilin, 4 C, apparent KD by non-linear fit
T1 construct: also called hSort; HEK293T + hSort
Description: (§1) Antibodies were diluted in FACS buffer (PBS+2% FBS+0.01% NaAzide). After incubation on ice for 1 h, cells were washed three times in FACS buffer and incubated with anti-human PE conjugated secondary antibody (BD Biosciences, 1:100 dilution) for 30 min on ice. Then cells were washed twice in 200 μl FACS buffer, and subsequently analyzed on a FACS Canto or iQE FACS screening instrument (Intellicyt Corp).

[2] = biological target: T2, mouse Sortilin expressed on HEK293T cells (mouse, UniProt Q6PHU5 74-825); assay: flow cytometry, antibody titration on HEK293T cells transiently expressing mouse Sortilin, 4 C, apparent KD by non-linear fit
T2 construct: also called msSort; mSort
Description: as §1

Binder | Kd [1] [nM] | Kd [2] [nM]
B1 | 3.84 | 6.62
B2 | 2.88 | 4.07
